Assays:
Grb2 SH2 = Grb2 SH2 (UniProt P62993); assay: SH2 binding enrichment of the phosphorylated peptide, bacterial display (enrichment ratio); higher = better substrate or ligand; peptides without Tyr show the background
SHP2-C SH2 = assay: as above
c-Src SH2 = assay: as above
Fyn = Fyn (UniProt P06241); assay: phosphorylation enrichment, bacterial display (enrichment ratio); higher = better substrate or ligand; peptides without Tyr show the background
c-Abl (mouse) = assay: as above
EPHB2 = EPHB2 (UniProt P29323); assay: as above
FGFR3 = FGFR3 (UniProt P22607); assay: as above
c-Src = assay: as above
Fer (mouse) = assay: as above
Fes = Fes (UniProt P07332); assay: as above
AncSZ = assay: as above
MERTK = MERTK (UniProt Q12866); assay: as above
EPHB1 = EPHB1 (UniProt P54762); assay: as above
Jak2 = Jak2 (UniProt O60674); assay: as above
FGFR1 = FGFR1 (UniProt P11362); assay: as above
Hck = Hck (UniProt P08631); assay: as above
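For SH2 binding enrichment of the phosphorylated peptide, bacterial display in this document: peptide library displayed on the E. coli surface as eCPX fusions, selected cells deep-sequenced, score is each peptide's frequency after selection divided by its frequency in the input.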
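For phosphorylation enrichment, bacterial display in this document: 11-residue human phosphosite peptides and single-mutation variants displayed on the E. coli surface, counted by deep sequencing, each peptide's frequency after selection divided by its frequency in the unselected input library; frequency after pTyr selection over input frequency; kinase dosed for 20-30% of maximal phosphorylation in three min.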

Sequence of FGFR3 (P22607 whole entry, looked up): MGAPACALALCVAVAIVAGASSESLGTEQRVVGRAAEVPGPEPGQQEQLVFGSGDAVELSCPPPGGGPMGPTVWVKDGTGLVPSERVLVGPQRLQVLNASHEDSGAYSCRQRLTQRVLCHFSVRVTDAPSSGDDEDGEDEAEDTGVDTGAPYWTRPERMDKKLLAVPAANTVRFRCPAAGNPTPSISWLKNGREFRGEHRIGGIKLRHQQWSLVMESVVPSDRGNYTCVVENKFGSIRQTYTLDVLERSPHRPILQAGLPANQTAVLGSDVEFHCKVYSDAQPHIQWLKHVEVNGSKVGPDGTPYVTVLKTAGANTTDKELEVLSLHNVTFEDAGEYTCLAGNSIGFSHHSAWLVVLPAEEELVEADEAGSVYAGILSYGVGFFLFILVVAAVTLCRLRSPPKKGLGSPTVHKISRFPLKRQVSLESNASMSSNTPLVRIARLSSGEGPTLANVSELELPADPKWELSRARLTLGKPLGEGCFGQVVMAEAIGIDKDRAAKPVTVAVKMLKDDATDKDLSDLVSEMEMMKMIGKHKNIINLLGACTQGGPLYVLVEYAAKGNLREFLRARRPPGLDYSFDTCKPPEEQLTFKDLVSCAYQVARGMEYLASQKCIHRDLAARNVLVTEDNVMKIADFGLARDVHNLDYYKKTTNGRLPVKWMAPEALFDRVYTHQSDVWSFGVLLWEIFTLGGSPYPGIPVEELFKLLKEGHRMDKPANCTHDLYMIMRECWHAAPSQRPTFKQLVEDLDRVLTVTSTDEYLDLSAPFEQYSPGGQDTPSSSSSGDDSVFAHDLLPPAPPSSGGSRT
Sequence of EPHB2 (P29323 whole entry, looked up): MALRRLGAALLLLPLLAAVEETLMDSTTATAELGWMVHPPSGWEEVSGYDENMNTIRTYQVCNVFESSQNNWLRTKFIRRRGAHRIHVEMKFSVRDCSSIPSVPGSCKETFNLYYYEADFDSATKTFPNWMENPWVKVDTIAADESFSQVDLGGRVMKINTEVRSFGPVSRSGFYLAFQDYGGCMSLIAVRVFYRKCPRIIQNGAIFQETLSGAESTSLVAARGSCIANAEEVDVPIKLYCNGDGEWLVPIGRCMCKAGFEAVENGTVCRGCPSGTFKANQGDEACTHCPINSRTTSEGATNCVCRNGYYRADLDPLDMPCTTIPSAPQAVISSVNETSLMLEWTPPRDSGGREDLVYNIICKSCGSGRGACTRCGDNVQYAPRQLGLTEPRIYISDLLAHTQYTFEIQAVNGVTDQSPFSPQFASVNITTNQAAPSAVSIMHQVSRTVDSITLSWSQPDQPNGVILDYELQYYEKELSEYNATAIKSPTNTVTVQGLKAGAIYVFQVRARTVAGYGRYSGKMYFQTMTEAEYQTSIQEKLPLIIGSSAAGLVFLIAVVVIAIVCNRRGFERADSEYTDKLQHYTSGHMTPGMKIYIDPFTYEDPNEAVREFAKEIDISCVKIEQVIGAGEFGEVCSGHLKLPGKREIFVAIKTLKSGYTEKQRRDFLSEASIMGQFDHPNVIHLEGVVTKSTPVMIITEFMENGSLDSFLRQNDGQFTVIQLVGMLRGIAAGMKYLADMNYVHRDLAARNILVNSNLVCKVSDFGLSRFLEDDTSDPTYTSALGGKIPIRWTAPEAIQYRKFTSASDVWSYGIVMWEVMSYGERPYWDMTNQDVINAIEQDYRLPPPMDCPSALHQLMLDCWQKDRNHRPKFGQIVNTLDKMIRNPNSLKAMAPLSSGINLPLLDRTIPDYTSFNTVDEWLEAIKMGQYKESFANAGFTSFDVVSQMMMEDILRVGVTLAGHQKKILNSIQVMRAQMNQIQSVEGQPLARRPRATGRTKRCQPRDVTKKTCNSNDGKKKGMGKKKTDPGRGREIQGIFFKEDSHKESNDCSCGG
Sequence of Hck (P08631 whole entry, looked up, the tested form may be a part): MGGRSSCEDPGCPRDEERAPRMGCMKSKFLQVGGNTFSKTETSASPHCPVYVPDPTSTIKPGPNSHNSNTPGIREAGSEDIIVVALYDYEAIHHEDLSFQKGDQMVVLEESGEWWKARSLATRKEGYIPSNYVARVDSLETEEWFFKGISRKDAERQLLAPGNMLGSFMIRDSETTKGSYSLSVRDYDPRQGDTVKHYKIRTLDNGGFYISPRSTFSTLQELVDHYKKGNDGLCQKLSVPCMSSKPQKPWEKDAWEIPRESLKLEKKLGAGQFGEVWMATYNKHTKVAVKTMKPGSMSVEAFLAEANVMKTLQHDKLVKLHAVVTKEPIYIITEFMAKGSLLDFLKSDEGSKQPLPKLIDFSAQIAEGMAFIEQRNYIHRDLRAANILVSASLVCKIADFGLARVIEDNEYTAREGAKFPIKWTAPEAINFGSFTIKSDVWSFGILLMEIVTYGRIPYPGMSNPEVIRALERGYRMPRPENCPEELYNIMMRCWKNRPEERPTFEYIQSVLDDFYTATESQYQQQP
Sequence of FGFR1 (P11362 whole entry, looked up): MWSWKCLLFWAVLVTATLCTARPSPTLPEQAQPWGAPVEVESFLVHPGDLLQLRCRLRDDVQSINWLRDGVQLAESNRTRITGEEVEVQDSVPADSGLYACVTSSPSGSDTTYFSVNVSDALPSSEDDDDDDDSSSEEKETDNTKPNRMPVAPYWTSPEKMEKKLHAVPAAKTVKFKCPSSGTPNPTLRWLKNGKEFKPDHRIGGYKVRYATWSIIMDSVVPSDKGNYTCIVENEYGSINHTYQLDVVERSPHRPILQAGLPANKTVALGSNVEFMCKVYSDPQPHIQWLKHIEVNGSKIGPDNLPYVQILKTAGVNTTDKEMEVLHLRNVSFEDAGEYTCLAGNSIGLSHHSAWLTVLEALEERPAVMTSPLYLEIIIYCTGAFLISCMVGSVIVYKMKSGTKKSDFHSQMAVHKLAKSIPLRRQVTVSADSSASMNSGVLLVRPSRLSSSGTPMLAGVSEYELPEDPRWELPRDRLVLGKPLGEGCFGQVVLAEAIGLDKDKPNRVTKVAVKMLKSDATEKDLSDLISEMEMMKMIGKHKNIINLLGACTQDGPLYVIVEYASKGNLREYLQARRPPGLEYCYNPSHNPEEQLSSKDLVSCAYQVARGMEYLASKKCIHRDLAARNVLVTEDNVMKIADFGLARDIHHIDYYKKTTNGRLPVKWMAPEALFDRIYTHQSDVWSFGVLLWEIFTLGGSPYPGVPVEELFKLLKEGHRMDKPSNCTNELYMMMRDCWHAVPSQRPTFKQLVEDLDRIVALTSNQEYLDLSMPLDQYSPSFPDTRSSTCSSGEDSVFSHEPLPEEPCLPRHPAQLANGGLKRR
Sequence of Fes (P07332 whole entry, looked up): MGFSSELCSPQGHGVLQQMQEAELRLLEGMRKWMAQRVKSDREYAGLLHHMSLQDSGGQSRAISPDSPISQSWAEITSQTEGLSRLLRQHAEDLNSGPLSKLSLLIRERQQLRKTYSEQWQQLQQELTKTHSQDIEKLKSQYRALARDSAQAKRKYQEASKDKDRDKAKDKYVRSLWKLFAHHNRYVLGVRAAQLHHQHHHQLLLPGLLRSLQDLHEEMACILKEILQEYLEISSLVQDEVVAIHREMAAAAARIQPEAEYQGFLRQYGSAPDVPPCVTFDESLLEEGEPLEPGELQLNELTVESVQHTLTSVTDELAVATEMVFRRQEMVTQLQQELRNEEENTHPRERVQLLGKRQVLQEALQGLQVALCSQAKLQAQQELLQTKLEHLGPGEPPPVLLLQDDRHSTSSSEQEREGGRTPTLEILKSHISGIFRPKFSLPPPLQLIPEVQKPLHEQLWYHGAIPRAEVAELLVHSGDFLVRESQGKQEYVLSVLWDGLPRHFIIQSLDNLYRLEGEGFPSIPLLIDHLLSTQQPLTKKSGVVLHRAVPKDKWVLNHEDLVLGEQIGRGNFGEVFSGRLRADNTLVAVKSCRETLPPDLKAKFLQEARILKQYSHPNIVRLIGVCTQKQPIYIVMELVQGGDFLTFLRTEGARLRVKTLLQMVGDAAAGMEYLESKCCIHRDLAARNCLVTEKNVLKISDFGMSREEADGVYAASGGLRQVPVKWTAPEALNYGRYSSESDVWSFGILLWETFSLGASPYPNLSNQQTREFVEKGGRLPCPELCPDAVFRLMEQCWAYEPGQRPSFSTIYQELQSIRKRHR
Sequence of Fyn (P06241 whole entry, looked up): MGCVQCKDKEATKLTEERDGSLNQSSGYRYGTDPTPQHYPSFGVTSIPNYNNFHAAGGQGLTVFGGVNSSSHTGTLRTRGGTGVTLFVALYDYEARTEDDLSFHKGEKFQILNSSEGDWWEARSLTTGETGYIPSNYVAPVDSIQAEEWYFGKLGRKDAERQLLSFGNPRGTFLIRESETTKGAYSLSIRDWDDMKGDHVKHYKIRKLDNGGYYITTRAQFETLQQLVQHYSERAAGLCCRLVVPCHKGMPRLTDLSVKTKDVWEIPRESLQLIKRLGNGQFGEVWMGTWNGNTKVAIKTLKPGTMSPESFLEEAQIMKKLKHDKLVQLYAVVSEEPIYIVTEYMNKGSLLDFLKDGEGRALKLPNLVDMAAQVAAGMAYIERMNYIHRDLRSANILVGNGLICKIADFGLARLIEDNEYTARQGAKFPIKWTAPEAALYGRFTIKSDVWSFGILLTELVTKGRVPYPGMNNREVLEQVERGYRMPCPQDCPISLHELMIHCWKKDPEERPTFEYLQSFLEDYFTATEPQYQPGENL

Sequence | SH2 binding enrichment (Grb2 SH2) | SH2 binding enrichment (SHP2-C SH2) | SH2 binding enrichment (c-Src SH2) | phosphorylation enrichment (Fyn) | phosphorylation enrichment (c-Abl (mouse)) | phosphorylation enrichment (EPHB2) | phosphorylation enrichment (FGFR3) | phosphorylation enrichment (c-Src) | phosphorylation enrichment (Fer (mouse)) | phosphorylation enrichment (Fes) | phosphorylation enrichment (AncSZ) | phosphorylation enrichment (MERTK) | phosphorylation enrichment (EPHB1) | phosphorylation enrichment (Jak2) | phosphorylation enrichment (FGFR1) | phosphorylation enrichment (Hck)
NYRPGYNNFYN [USH2A_Y467] | 0.875 | 0.84 | 0.614 | 0.567 | 0.514 | 0.602 | 0.606 | 0.516 | 0.711 | 0.705 | 0.697 | 0.551 | 0.616 | 0.651 | 0.637 | 0.621
CTTIHYNYKCN [TP53_Y234_M237K] | 1.42 | 1.4 | 1.67 | 0.454 | 0.493 | 0.539 | 0.566 | 0.454 | 0.408 | 0.878 | 0.754 | 0.562 | 0.433 | 0.62 | 0.526 | 0.484
QRCYVYYYSYL [PTEN_Y176_R173C] | 0.927 | 0.542 | 0.587 | 1.44 | 1.53 | 1.45 | 2.56 | 3.53 | 1.22 | 2.08 | 1.86 | 2.61 | 1.18 | 4.07 | 2.09 | 1.35
LEFGDCHPLKP [VPS35L_Y32_Y32C] | 0.963 | 0.613 | 0.529 | 0.841 | 0.884 | 0.802 | 1.52 | 0.602 | 1.24 | 1.97 | 1.63 | 0.472 | 0.863 | 1.16 | 0.763 | 0.777
HLPAGYIIPLQ [GAA_Y822_R819P] | 0.895 | 11.3 | 0.987 | 0.388 | 0.363 | 0.28 | 0.444 | 0.492 | 0.297 | 0.764 | 0.638 | 0.542 | 0.383 | 0.608 | 0.443 | 0.491
GLETSYIEDNC [PAH_Y24_Q20L] | 0.726 | 0.617 | 0.539 | 0.525 | 0.744 | 0.569 | 0.564 | 0.513 | 0.466 | 0.937 | 1.04 | 0.497 | 0.585 | 0.873 | 0.655 | 0.487
KVGPGSLGSGG [RET_Y826_Y826S] | 0.778 | 0.526 | 0.447 | 0.352 | 0.482 | 0.353 | 0.366 | 0.374 | 0.293 | 0.489 | 0.4 | 0.3 | 0.29 | 0.466 | 0.308 | 0.323

More lines, main results first:

SH2 binding enrichment (Grb2 SH2) | SH2 binding enrichment (SHP2-C SH2) | SH2 binding enrichment (c-Src SH2) | Sequence | phosphorylation enrichment (Fyn) | phosphorylation enrichment (c-Abl (mouse)) | phosphorylation enrichment (EPHB2) | phosphorylation enrichment (FGFR3) | phosphorylation enrichment (c-Src) | phosphorylation enrichment (Fer (mouse)) | phosphorylation enrichment (Fes) | phosphorylation enrichment (AncSZ) | phosphorylation enrichment (MERTK) | phosphorylation enrichment (EPHB1) | phosphorylation enrichment (Jak2) | phosphorylation enrichment (FGFR1) | phosphorylation enrichment (Hck)
0.743 | 0.642 | 0.531 | SGVSYYINLCQ [IGF2R_Y2025_N2020S] | 0.38 | 0.803 | 0.635 | 0.824 | 0.33 | 1.03 | 1.5 | 1.01 | 0.316 | 0.682 | 1.32 | 0.543 | 0.51
0.626 | 0.538 | 0.308 | GGEEFYVHFVG [KAT8_Y90_R86G_YF] | 0.58 | 0.967 | 0.605 | 0.96 | 0.501 | 0.592 | 1.39 | 1.34 | 0.433 | 0.747 | 1.24 | 0.648 | 0.612
1.21 | 0.895 | 0.618 | QGRQTYLLQPA [DDR2_Y813_P815L] | 0.462 | 0.693 | 0.529 | 0.484 | 0.701 | 0.388 | 0.514 | 0.498 | 0.555 | 0.5 | 0.726 | 0.63 | 0.411
0.853 | 0.644 | 0.477 | NVTRKYTRQIL [MAP3K2_Y463] | 0.372 | 0.397 | 0.264 | 0.353 | 0.373 | 0.305 | 0.411 | 0.363 | 0.319 | 0.333 | 0.339 | 0.316 | 0.265
0.851 | 0.734 | 0.57 | KVALVYGQMNE [ATP5F1B_Y269] | 1.47 | 0.65 | 0.495 | 0.606 | 1.97 | 0.525 | 1.13 | 0.785 | 0.38 | 0.446 | 0.769 | 0.443 | 1.05
0.976 | 0.644 | 0.487 | DGTGRYLCNAC [GATA5_Y208_H207R] | 0.424 | 0.523 | 0.4 | 0.522 | 0.349 | 0.362 | 0.573 | 0.552 | 0.383 | 0.4 | 0.455 | 0.475 | 0.375
0.847 | 0.585 | 0.452 | NAMRRYIEEFQ [MNS1_Y244] | 0.371 | 0.541 | 0.459 | 0.501 | 0.347 | 0.417 | 0.819 | 0.734 | 0.346 | 0.352 | 0.516 | 0.458 | 0.413
0.66 | 0.633 | 0.424 | ILDEAYVMASM [EGFR_Y764_V769M] | 0.539 | 0.746 | 0.553 | 0.62 | 0.643 | 0.557 | 1.19 | 1.22 | 0.447 | 0.461 | 0.965 | 0.525 | 0.528
0.576 | 0.762 | 0.262 | PGVDRYSLGTS [C5orf42_Y1451] | 0.702 | 0.741 | 0.788 | 0.745 | 0.737 | 0.57 | 0.973 | 0.789 | 0.788 | 0.577 | 0.769 | 0.755 | 0.678

From the supplement of paper PMC10065799, “High-throughput profiling of sequence recognition by tyrosine kinases and SH2 domains using bacterial peptide display” (eLife, 2023)
